This data set concerns T1, SigW (ECF sigma factor, GST fusion) (Pseudomonas donghuensis HYS), ORF:b11b1795.
T1 sequence: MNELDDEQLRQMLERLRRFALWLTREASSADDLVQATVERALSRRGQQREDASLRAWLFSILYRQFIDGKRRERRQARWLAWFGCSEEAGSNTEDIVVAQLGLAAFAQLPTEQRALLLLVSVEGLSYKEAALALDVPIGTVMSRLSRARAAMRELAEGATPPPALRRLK
As to the kind of experiment: EMSA. To be noted: EMSA: 0.3 uM DNA in 20 uL, 10 mM Tris-HCl pH 7.5, 150 mM NaCl, 2 mM DTT, 2 mM EDTA, 10% glycerol, 30 C 40 min; 6.8% native PAGE in 0.5x TBE on ice, EB stain. Background: A gel shift assay detects complexes by their altered migration in electrophoresis.
With “CCCTACCGTATTTGAACGGCTGGCCAGCCCTCTGTGTCCTTGCACGCCCTTGAGTTAGGGCCTGCATGCCCCATTTGCGGGCAGAGAACACTGCCGGTTCAAAGACATTCAGGGAAAAACCTCCAGGATCGGAGCCCCGTGGTCTGGCTGGCAGTCTTTCTCACAAATGCGATCAGGTAAATTCTGGAGTCATTCGTGAAACAAGCTCAACTTCCGCGCAAGATACCCACACAAGCCCGCTCGAGG (double strand) [orf12 promoter]”, the binding entry is recorded as “binds”.
“CGAACTCATGGCCTGCCCCCGGGAACGGGCGCAGGGGCACGGTAAAACAGGTACAGGCGCATGGCTTCAGAACTCCGGGTAATTGAGGTACCCGGCAAGTCTATGGAGGCCGATTACTGACGAAAACTGACATATTCGCAGCTTTATGCTGCATGAGACGCAACTATACGATCAGGTATATATAAGCGCTCAAAAGCATC (double strand) [orf2-orf5 promoter]”: the binding entry is “binds more weakly”.
As to “GCCCGCGTATTTCCTGAGCTCAACCTGAGCAATCACGCAGCGCCGCACTCGGTTATTTGAATGCGAGTAGCCATAGCACGGCAACTTGCCTAGGATAAGAAACAAATTGAAACGTTGTTAAAAGTGACAACTACCCGCTCAACGATGTTTCAACTTTCTTGCAATCTTCAGCCCCACAAATCAATAAAAGGACGTTCACGATGAGCAACAAGGGTTTTGACACCG (double strand) [orf9-orf6 promoter]”, the binding entry is “binds”.
For the sequence “TCAATGGCGATCAGTACCGAGCTGTACATGGTGACGGGACCCATTCTGAATACAAAGAGCAGGCATTCTTGAAAAAGCGTGCGGCCGGGTAAATGGTGCGCGGTGCAATGACTAGTTGCGCAGAATGCAAGGGCTGGAAAACCTGCAGAAACTGGTAAGATTGCAGCGGATTCACTGAAATACATGAATGGATGCTTACCATGCACTTTCCGGATA (double strand) [orf1 promoter]”, the binding result is “binds”.
